Experimental data from PMC8026907.

What was measured:
Details in all cases: protein: recombinant; tags: His-tag (pET-3a); chain copies: 2; blunt
[1] = biological target: T1, CRP-MTB (cAMP receptor protein, wild type) (Mycobacterium tuberculosis, UniProt P9WMH3 1-224); assay: fluorescence anisotropy; 1 mM cAMP
T1 sequence: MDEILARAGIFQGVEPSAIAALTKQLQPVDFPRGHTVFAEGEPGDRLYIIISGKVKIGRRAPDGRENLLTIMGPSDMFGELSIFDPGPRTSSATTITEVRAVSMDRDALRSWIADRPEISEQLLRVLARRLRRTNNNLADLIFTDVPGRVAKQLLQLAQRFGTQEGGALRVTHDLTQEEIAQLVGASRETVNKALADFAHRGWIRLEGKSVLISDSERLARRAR

[2] = biological target: T1, CRP-MTB (cAMP receptor protein, wild …); assay: fluorescence anisotropy; 0.1 mM cAMP
[3] = biological target: T1, CRP-MTB (cAMP receptor protein, wild …); assay: fluorescence anisotropy; no cAMP (apo)

B1: SerC promoter 32-bp, fluorescein (dsDNA)
DNA 1: GCGCGTAGTGTGAACAAGCTCACATGCAAGCC
DNA 2: GGCTTGCATGTGAGCTTGTTCACACTACGCGC
- Ka [1]: 4.2 ± 1.7 1e8 M-1
- Ka [2]: 4.5 ± 1.2 1e8 M-1
- Ka [3]: 2.3 ± 0.9 1e8 M-1

B2: SerC promoter 20-bp, fluorescein (dsDNA)
DNA 1: AGTGTGAACAAGCTCACATG
DNA 2: CATGTGAGCTTGTTCACACT
- Ka [1]: 0.5 ± 0.1 1e8 M-1
- Ka [3]: 0.12 ± 0.02 1e8 M-1
